We go through two molecules from article PMC8251270 (Journal of Leukocyte Biology, 2021).

For assay [1], the target named is recombinant receptor‐binding motif (RBM) of SARS‐CoV‐2 spike (S) protein, residue 437–508 (SARS-CoV-2, UniProt P0DTC2). Description: SPR. The conditions noted are these: both partners purified.
Assay [2] addresses tetranectin (TN) of murine lung tissue (Mus musculus (lung tissue lysate), UniProt P43025). Description: Western blot. The conditions noted are these: one partner purified.

Numbering of substitutions follows the chain as printed.

Sequence of tetranectin (TN) of murine lung tissue (P43025 22-202): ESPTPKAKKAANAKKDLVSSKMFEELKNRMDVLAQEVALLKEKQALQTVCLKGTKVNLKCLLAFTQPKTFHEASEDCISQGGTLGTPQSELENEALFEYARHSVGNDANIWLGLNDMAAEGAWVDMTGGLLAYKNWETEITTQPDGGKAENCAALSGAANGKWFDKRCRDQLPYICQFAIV

B1: mAb8 (antibody, V domains shown)
VH: DVKLVESGGGLVKLGGSLKLSCAASGFTFSTDYMSWVRQSPEKRLELVAAINSNGGTTYYPDTVKGRFIISRDNAKNTLYLQMSSLRSEDTALYYCARQVKNGLDYWGQGTSVTVSS
VL: DIQMTQTTSSLSASLGDRVTISCRASQDISNYLNWYQQKPDGTVKLLIYKTSRLHSGVPSRFRGSGSGTDYSLTISNLEEEDVATYFCQQGNTLPPTFGGGTKLEIK
As for B1, the Kd in assay [1] was 17.4 nM. The binding result in assay [2] was “binds”.

B2: mAb2 (antibody, V domains shown)
VH: B1 VH with K13N, T31S, S40I, I69T, R87K, V100G, L104M
VL: B1 VL with Y32H, K39R, K50Y, R63S, L73F, S76T, E79D, E80Q, V83I, N92K
On to B2, for which the Kd in assay [1] was found to be 62.8 nM. In addition, the binding result in assay [2] is “binds”.
